test: label from the status in PepcDB records

Sequence | protein production
MSGSNSSNHLHEREGTSEESREQSHKHSGLFNPRLFLHSLSHKFSHTPFHKHSHVHPHEHSHGHSHTHGRVDPSIIATQKGLWAVKWSFIGLMVTAVLQIFIVIMSGSVALLADTIHNFGDASTAIPLAIAFTLARRKPSKRFSYGYGRVEDLAGVIIVFLILFSAAVAGYESVTRFLNPRPVEHLQAVALAAIIGCIGNEVVAQFRMKVGKEIGSAALIADGYHARMDGFTSLAVLVGAVGVWLGYPILDPLIGMLITIAILKIVLDSSKLVFTRLLDGVEPEVLDQVKAIAEGVEGVCEVTDLRVRWIGHRLHAEINASVDPSLSVEEGHEIANAVREKLLENFSYLSGTTIHVDPVTASGECCHCGSESPDKRLGRQKRVLNVYPG | failed
MSHALRAVFLDHASLDLGDLDMRPLRAAFDELQLHAASQPQEVAARLHDARVAISNKVPIDAQCIAACPELELILISATGTNNIDLAAARERGIVVANCHGYGTPSVAQHTLALLLALATRLPDYQQAVRSGRWQQSSQFCLLDFPIVELEGKTLGLLGHGELGGAVARLAEAFGMRVLLGQLPGRPARADRLPLGELLPRVDALTLHCPLTEDTRGMLGSAELALMKPGAFLVNTARGGLVDEQALADALRGGHLGGAATDVLSVEPPRNGNPLLAPDIPRLIVTPHNAWGSREARQRIVGQLAENAEAWKAGR | failed
MSHGIKLLVSGDHACFTRPEMKAERVSYDVMTPSAARGILEAIHWKPAITWVIDAIHVLKPIRFQTLRRNEVGGKVPAGKVKSAMTKGTLDGLALLADEDRQQRATTLLVDVAYVIEAHFTLTDKAGPEDNPGKHLDIFTRRARKGQCFHQPCLGTREFPARFELIDGDRPIPAAVNRSEDLGFMLWDIDHAGDRSSMFFRARMDRGVVRVPAPSSAEIRR | failed
MSHNEESPGIGPGAGGQDSTTALIEAINIRSMSLIVLTSIASLYFIEWAQPVLLPLVVAVLISYALDPLVATLDRIHIPRPLGAALVLCTLIAILAAASVPLKQEAMAMLDKIPQAIKELQREDASTSEDEESIMEKAQIAAKQIEETAENREGKPAVQAGVTPVRVVDEPMDVRDYVIRNSPATIVLISQMFSVLLLVFFLLSVGKLYRRKIVRISGPSFRRMRKAARIMNELHHQVRRFLFVMVISALFVGILTWLAFLLLGVEQAALWGVVAGIASGVPYLGPFLVLVGSGVAAFLQFGELNTAVIVALTSLVITSIQGNLLMPWLTSYVSSLNAVAIFIGLLFWGWLWGPVGLIVATPILMIAKSVCDHVVNFRPVGELLGK | failed
MSHPHPELGRPPALPKGGLRVTPLGGLGEIGRNMTVFEYGGRLLIVDCGVLFPEEEQPGIDLILPDFTSIRDRLDDIEGIVLTHGHEDHIGGVPFLLREKPDIPLIGSKLTLALIEAKLQEHRIRPYTLEVAEGHRERVGPFDCEFVAVNHSIPDALAVAIRTPAGMVVHTGDFKMDQLPLDGRLTDLHAFARLSEEGIDLLLADSTNAEVPGFVPPERDISNVLRQVFANARKRIIVASFASHVHRIQQILDAAHEYGRRVAFVGRSMVRNMGIARDLGYLKVPPGLVVDVKTLDDLPDSEVVLVCTGSQGEPMAALSRMANRDHQIRIVNGDTVILASSLIPGNENAVYRVINGLTRWGANVVHKGNAKVHVSGHASAGELLYFYNICRPKNLMPVHGEWRHLRANAELGALTGVPHDRIVIAEDGVVVDLVEGKAKITGKVQAGYVYVDGLSVGDVGEPALKDRKILGDEGIISVFVVMDSSTGKITGGPHVQARGSGIEDSAFAAVLPKVTEALERSAQDGVVEPHQMQQLIRRTLGKWVSDTYRRRPMILPVVVEV | failed
MSHSVEAEDNKLVKTFKDIIPLTFGEEIGNSVSHGVAAFIALCALPYAAIHSFLEYGVLGAFSVSVYVISIFLMFISSTVYHAMPNQSSHKFILRIIDHSMIYVAIAGTYTPICLTLVGGWIGWSSMVVLWGITIWGILYKSLAKNVNHKLSLIMYLVMGWIGVLFLPTIIFDSSLLFMLFILFGGLAYTIGAWFYAQKNRPYFHMIWHFFIIVASVFHFVAIMYFM | failed
MSHTAEIPMVPGSESPLELKPLKAVDPKAVYHRRAQRLLSLAKDSPLADYFELCRRVVAIQARLAAEADFGQLLAWGKDEAIPLSHLGSEADSYWQGLLQQLLSDLLPQVGEDLARVLRLLMQQSPEQLTSWGASLRQGHMSAVPARFSLFIWAAMGVYWSHWAPMVIKRIDQRKVAQQNLCPICGSHPVASVIVDQPRAGLRYLHCSLCESEWHYIRAHCTSCGQDKGTTLWSFDDTQAQVRIESCDECHGYTKMMFVEKSPLMDVVADDLATLMLDSELNAKGFGATTVNPLLLAHETEQ | failed
MSHVSLQEFLKTEPDGTLEVVAEQYNTTLLEVVRNLPSSTVVPGDKFDTVWDTVCEWGNVTTLVHTADVILEFSGELPSGFHRHGYFNLRGKHGMSGHIKAENCTHIALIERKFMGMDTASILFFNKEGSAMLKIFLGRDDHRQLLSEQVSAFHTLAASLKEHA | not failed
MSIADAEFAQAKTAQSAPTAAKPQLPPGVVTEGPLVKAKLRESYLLLGILYVGAVAGIIWAVTQGVGKVELFTFAWMFALTTFGIGAGMHRLFVHRSFRTGPIMRVFFCAIAQMAVQGSIAKWVANHRRHHLYADDVGDPHSPQFDGFGNRYVSALKGFLHAQGSWVFDQATTDNEYYAKDILADPIAMFFVRTRWVWYGMSAVFIPGFIGYVFGGVHTMIGCVLFSGLLRAYLLILVSQLTGSVCHAYGYRRFEVDDASTNEFVTTILTFGEGLHNNHHRFPRDAYISHAWWEIDLNGLIILGMEKIGLVHDVFHASHRQLERASEAQAASTR | failed
MSIASLIGTVGGVGYLRPAPGTWGSLAALPLAWVLHQLGGFPLLALATLGAFVAGLWATRVMTAGQTDHDPSEIVIDEVAGQFLALWALSLPAWSHGIEISALWPGWIAAFVLFRLFDITKPGPVGWADRRGDPMGVMLDDIIAGLFAAIGTALLAALSHGVLGL | failed
MSIATTPLHTALSLPQIQSFAASDMAAIDTLIHDRLTSDIVLINQIADHIICSGGKRLRPMLTMLAGHAIGPTGPHHHQLAAIIEFIHTATLLHDDVVDGSELRRSRSTANALWGNAPSVLVGDFLYSRSFQLMTELANLEVMQILAETTNRISEGEVLQLLHVHNPDTDETTYLSVIERKTAILFAAAAQLGALASHADTQTQTRMYEYGMQLGYAFQITDDVLDYTANNSQLGKNLGDDLAEGKATLPVIHAMTHSDAATCERLRMIISKGDSDAMPEVLNAIRTTGSLDYSRQRASAYAATAERALDGLPETEAVAALRGLARYAVQRTY | failed
MSIDVHPNNYAYQTNEPYKNFEAEDKLIGHLQDFVDGHQEDVKRIGSKMSEMKAKFEEKFDDLTNRLENMEGALVEINNALLNHQDDIQDQYTRIVNVGLVVDTVESHLDWKIEELEKKLNNSNEFSE | not failed
MSIELDATTYIHAKPTTAHSYILPKIFDVLGDHFDGSAENDVFDLGCGTGGAAAALTKAGYDVVGVDPSSDGIGKANIRHPGLALSVGSAYDDLSREYGSFSAVISLEVVEHVYDPKTFTSTMFDLVKPGGIAVISTPYHGYLKNLALAATGKMDDHFMPLKDHGHIKFWSKNTLRTLLLETGFANVRFEYVGRIPAFAKSMIAVADKPFSQSARHGAVRRSSPEVVSTACRQKKP | failed
MSIESDMIHVEVVYALPHEQRVFNLVVNNHATVEEIIRQSGVLELYPEIDLAKNKVGVFSRNVKLDATVRDKDRIEIYRPLLADPKEIRRKRAEQAKAAGNADPVTGGKPNALRK | failed
MSIHVNEANLTFHLQTDHTSYIFQIMKNGEAGQIYYGPRIHVQPTYQNLMSQEWRDATPSLNEENPNFQPATIKAEYASLGKGDFRQPAFQVTQANGSRITELTYDHYQLLTGKQRLANLPSTFDDTDDDAQTLVVSFNDRITGLALDLNYSIFPHQDVIVKSAKFTNPSSEKLVLNRALSSQLDLPDANYDLIQFSGTWARERHLYRHPLRPGMQSISSLRMASSHQQNPFMMLARPQTTDEQGAVFGFNLVYSGNFLDAIEVDQYSTSRILTGINPDEFGWNLAPQATFQTPEAILSYTSAGMNQLSQQMASFYQQHLVNPRFAHEERPVLINNWEATYFDFNEAKLMTIVNQAKRLGIEMFVLDDGWFGHRDDDTTSLGDWFVDQRKFPDGIEHFSQAVHQQGMKFGLWFEPEMVSVDSDLYQQHPDWLIHAPKSTPTPGRHQFVLDMARPEVVDYLFKLMSQMIESANLDYIKWDMNRYATEMFSSRLTSDQQLELPHRYILGVYQLYARLTQAYPNVLFESCASGGGRFDLGMMYYAPQAWTSDDTDAAERLLIQFGTSYGYPQAMMGAHVSAVPNDQMGRITSLKTRGAVAFFGDLGYELDITKMAPTELDQVKKQVAFYKCYRQLFQFGKFYRIDSPFVEDGNVTSWQVVSDDQKQAIAARYQLLNHPNAPYTRFYFKGLRPNQRYQINDDPSTYYGDELMNAGYFVPTILADGQESKDFYTQLFVVTAILEHHHHHH | not failed
MSIIFILKMSKQSEQILEEQLLIQLHKLGYEKVILPNEDALLLNLKKQLEKHNKITFSKAEFDKVLNIVNKGSVFEKAKILRQRQHIIRDNGDNLYFEFLNTDYWCQNEYQVTNQLSQEGRYLNRYDVTLLINGLPLVQIELKRRGLELKEAFNQIDRYRKHSFGSGHGLYHFVQLFVISNGVNTKYFGNFGIHKQEYLQTFHWTDENNKPLNNILNGFTDTFLEPCHISKMICKYIVLHETEKKLMVLRPYQYFAVENIIKKVKENEVLNGYDINKNGYIWHTTGSGKTLTSFKASQILSNIPAIKKVVFVVDRKDLDYQTNQEYEKFSQGCVSSVGNTDDLIKKFNDPAERIIVTTIQKLNNAISGKNIYKMKAMQDQRMVFIFDECHRSQFGDTHKNIVSYFTNIQLFGFTGTPILVENANGEKTTASLFGKCLHKYVITDAIRDENVLRFSVEYIQTFKQKEHIVDLKIEQINETEVFEAPERKEAIVNYILQHHKQKTQQGKYCAMMCVQDIDSVIQYYEILKAMKKAGEHQLKIITIFSFAQNEDPLDYEIKTELSVVEEPKALYGLPPHRRELLDAYIGDFNQLYDTAHSTKDSQSFYTYYNDVAKKAKNNEMDILLVANMFLTGFDSKYLNTLYVDKNLQYHGLIQAFSRTNRTHDKNKTQGNIVCFRNLKDKTDEAITLFSNREAIDEVIVAPYETYVEEFNKAVNQLKAIVPNVDSVDDLYTEEDQLKFILAFRNMIRLHKKMSHYTEFTWDDLEIEEQSFLDYSSKYQDLKDSIVHKSDKEKTSILDDIDFELELIKKDTINVSYIVQLLFKLKVKKGKKDKEEVEKEIFNLLNTEVSLRSKRELIEKFIKENMSKIVEAEDIVDEFTRFWNEEQQKAFDELVQDENLSAERTQHLIEGYLFSEQEPLRDEILKLRNEGRPSALQAKDISNRILQRIKDFVNTFINGMNIAA | failed
MSIKKLWVIPKDGYLLLLDYDSDEEEEQAHSEVKRPAFGKHENMPPHVEADEDIRDEQDSMLDKSGENVSFSEEWQRFARSVETPMENWNLLSGEQQVRNASELDLMEVQNPVTHDDGNANPEEVVGDTRKKINNKLCEQKFDMDIQKFNEEQEKSVNNYQKEQQALKLSECSQSPTMEAIEDMHEKSMEGLMNMETNNYDMLFDVDGEETL | failed

Source: a protein production outcome set (Wang et al. 2014)
